Data from patent publication US20190112392A1 (Ablynx, published 2019).

What was measured:
EGFR on cells [1] = biological target: T1, EGFR on cells (UniProt P00533 25-1210, limits assumed); test: cell-based or functional assay
EGFR on cells [2] = biological target: T1, EGFR on cells; test: flow cytometry, LoVo cells; parameters: Top: unit not given here
EGFR on cells [3] = biological target: T1, EGFR on cells; test: flow cytometry, LS174T cells; parameters: Top: unit not given here
EGFR on cells [4] = biological target: T1, EGFR on cells; test: flow cytometry, HER14 cells
EGFR on cells [5] = biological target: T1, EGFR on cells; test: cell-based or functional assay; remark: listed apart in the source
HER2 on cells = HER2 on cells (human, UniProt P04626 23-1255); test: cell-based or functional assay
[6] = biological target: T cell receptor alpha/beta on primary cynomolgus T cells (cynomolgus); test: cell-based or functional assay

Row | Binder | IC50, xCELLigence human T cell mediated killing of HER14 cells, E:T 15, 50-60 h (EGFR on cells [1]) [pM] | IC50, xCELLigence human T cell mediated killing of LS174T cells, E:T 15, 50-60 h (EGFR on cells [1]) [nM] | IC50, xCELLigence human T cell mediated killing of LoVo cells, E:T 15, 50-60 h (EGFR on cells [1]) [pM] | EC50 (EGFR on cells [2]) [nM] | Top (EGFR on cells [2]) | EC50 (EGFR on cells [3]) [nM] | Top (EGFR on cells [3]) | EC50 (EGFR on cells [4]) [nM] | Top (EGFR on cells [4]) | IC50, xCELLigence human T cell mediated killing of LS174T cells, E:T 15, 30-40 h (EGFR on cells [5]) [nM] | IC50, xCELLigence human T cell mediated killing of LoVo cells, E:T 15, 30-40 h (EGFR on cells [5]) [nM] | IC50 (column head prints EC50), xCELLigence based cytotoxicity (readout 18 h), MCF-7, human T cells, E/T 15:1 (HER2 on cells) [pM] | IC50, xCELLigence based cytotoxicity (readout 18 h), SKBR3, human T cells, E/T 15:1 (HER2 on cells) [pM] | IC50, xCELLigence cynomolgus T cell mediated SKBR3 killing assay [6] [pM]
1 | T017000110 (other, EGFR x irrelevant (anti-egg lysozyme) x TCR Nanobody construct; entry includes the FLAG3-HIS6 tag; also called EGFR038G07-35GS-cAbLys3(D1E,Q5V,A6E,Q108L)-35GS-T0170056G05-FLAG3-HIS6) EVQLVESGGGLVQAGGSLRLSCAASGRTFSSYVMGWFRQATGKEREFVATIAWDSGSTYYADSVKGRFTISRDNAKNTVHLQMNSLKPEDTAVYYCAASYNVYYNNYYYPISRDEYDYWGQGTLVTVSSGGGGSGGGGSGGGGSGGGGSGGGGSGGGGSGGGGSEVQLVESGGGSVQAGGSLRLSCAASGYTIGPYCMGWFRQAPGKEREGVAAINMGGGITYYADSVKGRFTISQDNAKNTVYLLMNSLEPEDTAIYYCAADSTIYASYYECGHGLSTGGYGYDSWGQGTLVTVSSGGGGSGGGGSGGGGSGGGGSGGGGSGGGGSGGGGSEVQLVESGGGLVQPGGSLRLSCVASGDVHKINFLGWYRQAPGKEREKVAHISIGDQTDYADSAKGRFTISRDESKNMVYLQMNSLKPEDTAVYFCRAFSRIYPYDYWGQGTLVTVSSGAADYKDHDGDYKDHDIDYKDDDDKGAAHHHHHH | 420 | 8.9 | 600 | 2.4 | 95900 | 6.3 | 40800 | 7.3 | 165000 | 26 | 1.5 | – | – | –
2 | T017000102 (bispecific antibody) EVQLVESGGGLVQAGGSLRLSCAASGITFSINTMGWYRQAPGKQRELVALISSIGDTYYADSVKGRFTISRDNAKNTVYLQMNSLKPEDTAVYYCKRFRTAAQGTDYWGQGTLVTVSSGGGGSGGGGSGGGGSGGGGSGGGGSGGGGSGGGGSEVQLVESGGGLVQPGGSLRLSCVASGDVHKINFLGWYRQAPGKEREKVAHISIGDQTDYADSAKGRFTISRDESKNMVYLQMNSLKPEDTAVYFCRAFSRIYPYDYWGQGTLVTVSSGAADYKDHDGDYKDHDIDYKDDDDKGAAHHHHHH | – | – | – | – | – | – | – | – | – | – | – | 120 | 14 | 46
